In US20160193299A1, “MODIFIED NUCLEOSIDE, NUCLEOTIDE, AND NUCLEIC ACID COMPOSITIONS” (Moderna Therapeutics, Inc., priority 2011, published 2016):

Legend:
mice = test: Saline formulation: human G-CSF / EPO in mouse serum; type: in vivo; details: 100 ug in F. buffer, bled 13 hours after injection, G-CSF group
Procedure: The mice were bled at 13 hours after the injection to determine the concentration of the human polypeptide in serum in pg/mL. (G-CSF groups measured human G-CSF in mouse serum and EPO groups measured human EPO in mouse serum).

G-CSF [1] = test: Examples 21-22 non-human primate in vivo study, serum G-CSF ELISA; set-up: species or system cynomolgus monkey; details: for Average Serum Conentration: G-CSF
Procedure: (§1) Formulations, listed in Table 31, were characterized by particle size, zeta potential, and encapsulation.
LNP formulations, shown in Table 31 (above), were administered to non-human primates (NHP) (cynomolgus monkey) (n=2) as a bolus intravenous injection (IV) over approximately 30 seconds using a hypodermic needle, which may be attached to a syringe/abbocath or butterfly if needed. The NHP were administered a single modified mRNA IV dose of 0.05 mg/kg of EPO or G-CSF or 0.005 mg/kg of EPO in a dose volume of 0.5 mL/kg. The NHPs were bled 5-6 days before dosing with the modified mRNA LNP formulations to determine protein expression in the serum and a baseline complete blood count. After administration with the modified mRNA formulation the NHP were bled at 8, 24, 48 and 72 hours to determined protein expression. At 24 and 72 hours after administration the complete blood count of the NHP was also determined. Protein expression of G-CSF and EPO was determined by ELISA. Urine from the NHPs was collected over the course of the entire experiment and analyzed to evaluate clinical safety. Samples were collected from the NHPs after they were administered with G-CSF or EPO modified mRNA formulations to determine protein expression using ELISA. Clinical chemistry, hematology, urinalysis and cytokines of the non-human primates were also analyzed.
(§2) LNP formulations, shown in Table 31 (above), were administered to non-human primates (NHP) (cynomolgus monkey) (n=2) as intravenous injection (IV). The NHP were administered a single modified mRNA IV dose of 0.5 mg/kg, 0.05 mg/kg or 0.005 mg/kg of G-CSF or EPO in a dose volume of 0.5 mL/kg. The NHPs were bled before dosing with the modified mRNA LNP formulations to determine protein expression in the serum and a baseline complete blood count. After administration with the G-CSF modified mRNA formulation the NHP were bled at 8, 24, 48 and 72 hours to determined protein expression. After administration with the EPO modified mRNA formulation the NHP were bled at 8, 24, 48, 72 hours and 7 days to determined protein expression.
(§3) Samples collected from the NHPs after they were administered with G-CSF or EPO modified mRNA formulations were analyzed by ELISA to determine protein expression. Neutrophil and reticulocyte count was also determined pre-dose, 24 hours, 3 days, 7 days, 14 days and 18 days after administration of the modified G-CSF or EPO formulation.

G-CSF [2] = test: Example 19 LNP formulations in mice, serum G-CSF ELISA; type: in vivo; details: for G-CSF Serum Concentration: mice IV (n=4); for G-CSF protein expression detectable at least out to: mice IV
Procedure: as §1
LNP formulations, shown in Table 31 (above), were administered to mice (n=4) intravenously (IV) at a single modified mRNA dose 0.05 mg/kg or 0.005 mg/kg. There was also 3 control groups of mice (n=4) that were untreated. The mice were bled at 2 hours, 8 hours, 24 hours, 48 hours and 72 hours after they were administered with G-CSF or EPO modified mRNA formulations to determine the protein expression. Protein expression of G-CSF and EPO were determined using ELISA.

reticulocytes = test: Example 22 non-human primate study, reticulocyte count; type: in vivo, cynomolgus monkey
Procedure: as §2, §3

G-CSF [3] = test: Example 16 lipid nanoparticle in vivo study, serum G-CSF ELISA; set-up: species or system mice; details: for G-CSF Serum Concentration 8-12 hours after administration: IV (LNP); for G-CSF Protein Expression, Conc: mice IV LNP, serum 8 hrs
Procedure: Mice were sacrificed at 8 hrs after dosing. […] Protein expression was determined by ELISA.
As used in Table 30, the symbol “˜” means about.

B1: G-CSF: human G-CSF mRNA SEQ ID NO: 6, polyA ~160 nt, Cap1, fully modified with 5-methylcytosine and pseudouridine (nucleic acid, listed as Homo sapiens)
chain: GGGAAAUAAGAGAGAAAAGAAGAGUAAGAAGAAAUAUAAGAGCCACCAUGGCCGGUCCCGCGACCCAAAGCCCCAUGAAACUUAUGGCCCUGCAGUUGCUGCUUUGGCACUCGGCCCUCUGGACAGUCCAAGAAGCGACUCCUCUCGGACCUGCCUCAUCGUUGCCGCAGUCAUUCCUUUUGAAGUGUCUGGAGCAGGUGCGAAAGAUUCAGGGCGAUGGAGCCGCACUCCAAGAGAAGCUCUGCGCGACAUACAAACUUUGCCAUCCCGAGGAGCUCGUACUGCUCGGGCACAGCUUGGGGAUUCCCUGGGCUCCUCUCUCGUCCUGUCCGUCGCAGGCUUUGCAGUUGGCAGGGUGCCUUUCCCAGCUCCACUCCGGUUUGUUCUUGUAUCAGGGACUGCUGCAAGCCCUUGAGGGAAUCUCGCCAGAAUUGGGCCCGACGCUGGACACGUUGCAGCUCGACGUGGCGGAUUUCGCAACAACCAUCUGGCAGCAGAUGGAGGAACUGGGGAUGGCACCCGCGCUGCAGCCCACGCAGGGGGCAAUGCCGGCCUUUGCGUCCGCGUUUCAGCGCAGGGCGGGUGGAGUCCUCGUAGCGAGCCACCUUCAAUCAUUUUUGGAAGUCUCGUACCGGGUGCUGAGACAUCUUGCGCAGCCGUGAAGCGCUGCCUUCUGCGGGGCUUGCCUUCUGGCCAUGCCCUUCUUCUCUCCCUUGCACCUGUACCUCUUGGUCUUUGAAUAAAGCCUGAGUAGGAAG
modifications: polyA ~160, Cap1, 5mC/pseudouridine modified
Average Protein Product, serum (human G-CSF) (mice): 45 pg/mL
Female NHP Serum G-CSF Concentration (G-CSF [1]; IV 0.005 mg/kg, 8 hours): 559 pg/mL
Male NHP Serum G-CSF Concentration (G-CSF [1]; IV 0.005 mg/kg, 8 hours): 700 pg/mL
Female NHP Serum G-CSF Concentration (G-CSF [1]; IV 0.005 mg/kg, 24 hours): 155 pg/mL
Male NHP Serum G-CSF Concentration (G-CSF [1]; IV 0.005 mg/kg, 24 hours): <39 pg/mL
Female NHP Serum G-CSF Concentration (G-CSF [1]; IV 0.005 mg/kg, 48 hours): <39 pg/mL
Male NHP Serum G-CSF Concentration (G-CSF [1]; IV 0.005 mg/kg, 48 hours): <39 pg/mL
Female NHP Serum G-CSF Concentration (G-CSF [1]; IV 0.005 mg/kg, 72 hours): <39 pg/mL
Male NHP Serum G-CSF Concentration (G-CSF [1]; IV 0.005 mg/kg, 72 hours): <39 pg/mL
Female NHP Serum G-CSF Concentration (G-CSF [1]; IV 0.005 mg/kg, Pre-bleed): <39 pg/mL
Male NHP Serum G-CSF Concentration (G-CSF [1]; IV 0.005 mg/kg, Pre-bleed): <39 pg/mL
Female NHP Serum G-CSF Concentration (G-CSF [1]; IV 0.05 mg/kg, 24 hours): 722 pg/mL
Male NHP Serum G-CSF Concentration (G-CSF [1]; IV 0.05 mg/kg, 24 hours): 307 pg/mL
Female NHP Serum G-CSF Concentration (G-CSF [1]; IV 0.5 mg/kg, 8 hours): 43,525 pg/ml
Male NHP Serum G-CSF Concentration (G-CSF [1]; IV 0.5 mg/kg, 8 hours): 43,594 pg/ml
Female NHP Serum G-CSF Concentration (G-CSF [1]; IV 0.5 mg/kg, 24 hours): 11,374 pg/ml
Male NHP Serum G-CSF Concentration (G-CSF [1]; IV 0.5 mg/kg, 24 hours): 3,628 pg/ml
Female NHP Serum G-CSF Concentration (G-CSF [1]; IV 0.5 mg/kg, 48 hours): 1,100 pg/ml
Male NHP Serum G-CSF Concentration (G-CSF [1]; IV 0.5 mg/kg, 48 hours): 833 pg/mL
Female NHP Serum G-CSF Concentration (G-CSF [1]; IV 0.5 mg/kg, 72 hours): <39 pg/mL
Male NHP Serum G-CSF Concentration (G-CSF [1]; IV 0.5 mg/kg, 72 hours): 306 pg/mL
Female NHP Serum G-CSF Concentration (G-CSF [1]; IV 0.5 mg/kg, Pre-bleed): <39 pg/mL
Male NHP Serum G-CSF Concentration (G-CSF [1]; IV 0.5 mg/kg, Pre-bleed): <39 pg/mL
Average Serum Conentration (G-CSF [1]; NHP, IV 0.05 mg/kg, 8 hours): 2,506 pg/ml
Average Serum Conentration (G-CSF [1]; NHP, IV 0.05 mg/kg, 24 hours): 515 pg/mL
Average Serum Conentration (G-CSF [1]; NHP, IV 0.05 mg/kg, 48 hours): 0 pg/mL
Average Serum Conentration (G-CSF [1]; NHP, IV 0.05 mg/kg, 72 hours): 0 pg/mL
Average Serum Conentration (G-CSF [1]; NHP, IV 0.05 mg/kg, Pre-bleed): 0 pg/mL
G-CSF protein expression seen out to (G-CSF [1]; NHP, IV 0.05 mg/kg): 24 h
G-CSF protein expression not detected beyond (G-CSF [1]; NHP, IV 0.5, 0.05, 0.005 mg/kg (Table 36)): ≤ 72 h
G-CSF Serum Concentration (G-CSF [2]; 0.005 mg/kg, 2 hours): 3,447.8 pg/ml
G-CSF Serum Concentration (G-CSF [2]; 0.005 mg/kg, 8 hours): 11,454.0 pg/ml
G-CSF Serum Concentration (G-CSF [2]; 0.005 mg/kg, 24 hours): 4,960.2 pg/ml
G-CSF Serum Concentration (G-CSF [2]; 0.005 mg/kg, 48 hours): 686.4 pg/mL
G-CSF Serum Concentration (G-CSF [2]; 0.05 mg/kg, 2 hours): 20,951.4 pg/ml
G-CSF Serum Concentration (G-CSF [2]; 0.05 mg/kg, 8 hours): 70,012.8 pg/ml
G-CSF Serum Concentration (G-CSF [2]; 0.05 mg/kg, 24 hours): 19,356.2 pg/ml
G-CSF Serum Concentration (G-CSF [2]; 0.05 mg/kg, 48 hours): 1,963.0 pg/ml
G-CSF Serum Concentration (G-CSF [2]; 0.05 mg/kg, 72 hours): 47.3 pg/mL
G-CSF protein expression detectable at least out to (G-CSF [2]; 0.005 mg/kg): ≥ 48 h
G-CSF protein expression detectable at least out to (G-CSF [2]; 0.05 mg/kg): ≥ 72 h
Reticulocyte count (reticulocytes; Table 39, Female NHP, 0.005 mg/kg, 14/18 days): 0.057 10^12/L
Reticulocyte count (reticulocytes; Table 39, Female NHP, 0.005 mg/kg, 24 hours): 0.07 10^12/L
Reticulocyte count (reticulocytes; Table 39, Female NHP, 0.005 mg/kg, 3 days): 0.054 10^12/L
Reticulocyte count (reticulocytes; Table 39, Female NHP, 0.005 mg/kg, 7 days): 0.066 10^12/L
Reticulocyte count (reticulocytes; Table 39, Female NHP, 0.005 mg/kg, Pre-dose): 0.06 10^12/L
Reticulocyte count (reticulocytes; Table 39, Female NHP, 0.05 mg/kg, 14/18 days): 0.06 10^12/L
Reticulocyte count (reticulocytes; Table 39, Female NHP, 0.05 mg/kg, 24 hours): 0.046 10^12/L
Reticulocyte count (reticulocytes; Table 39, Female NHP, 0.05 mg/kg, 3 days): 0.061 10^12/L
Reticulocyte count (reticulocytes; Table 39, Female NHP, 0.05 mg/kg, 7 days): 0.094 10^12/L
Reticulocyte count (reticulocytes; Table 39, Female NHP, 0.05 mg/kg, Pre-dose): 0.049 10^12/L
Reticulocyte count (reticulocytes; Table 39, Female NHP, 0.5 mg/kg, 14/18 days): 0.071 10^12/L
Reticulocyte count (reticulocytes; Table 39, Female NHP, 0.5 mg/kg, 24 hours): 0.046 10^12/L
Reticulocyte count (reticulocytes; Table 39, Female NHP, 0.5 mg/kg, 3 days): 0.017 10^12/L
Reticulocyte count (reticulocytes; Table 39, Female NHP, 0.5 mg/kg, 7 days): 0.021 10^12/L
Reticulocyte count (reticulocytes; Table 39, Female NHP, 0.5 mg/kg, Pre-dose): 0.055 10^12/L
Reticulocyte count (reticulocytes; Table 39, Male NHP, 0.005 mg/kg, 14/18 days): 0.069 10^12/L
Reticulocyte count (reticulocytes; Table 39, Male NHP, 0.005 mg/kg, 24 hours): 0.037 10^12/L
Reticulocyte count (reticulocytes; Table 39, Male NHP, 0.005 mg/kg, 3 days): 0.037 10^12/L
Reticulocyte count (reticulocytes; Table 39, Male NHP, 0.005 mg/kg, 7 days): 0.046 10^12/L
Reticulocyte count (reticulocytes; Table 39, Male NHP, 0.005 mg/kg, Pre-dose): 0.037 10^12/L
Reticulocyte count (reticulocytes; Table 39, Male NHP, 0.05 mg/kg, 14/18 days): 0.107 10^12/L
Reticulocyte count (reticulocytes; Table 39, Male NHP, 0.05 mg/kg, 24 hours): 0.048 10^12/L
Reticulocyte count (reticulocytes; Table 39, Male NHP, 0.05 mg/kg, 3 days): 0.101 10^12/L
Reticulocyte count (reticulocytes; Table 39, Male NHP, 0.05 mg/kg, 7 days): 0.157 10^12/L
Reticulocyte count (reticulocytes; Table 39, Male NHP, 0.05 mg/kg, Pre-dose): 0.055 10^12/L
Reticulocyte count (reticulocytes; Table 39, Male NHP, 0.5 mg/kg, 14/18 days): 0.029 10^12/L
Reticulocyte count (reticulocytes; Table 39, Male NHP, 0.5 mg/kg, 24 hours): 0.032 10^12/L
Reticulocyte count (reticulocytes; Table 39, Male NHP, 0.5 mg/kg, 3 days): 0.041 10^12/L
Reticulocyte count (reticulocytes; Table 39, Male NHP, 0.5 mg/kg, 7 days): 0.009 10^12/L
Reticulocyte count (reticulocytes; Table 39, Male NHP, 0.5 mg/kg, Pre-dose): 0.067 10^12/L
G-CSF Serum Concentration 8-12 hours after administration (G-CSF [3]; 1 ug): ~20,000 pg/ml
G-CSF Serum Concentration 8-12 hours after administration (G-CSF [3]; 10 ug): ~1,000,000 pg/ml
G-CSF Serum Concentration 8-12 hours after administration (G-CSF [3]; 100 ug): ~5,000,000 pg/ml
G-CSF Protein Expression, Conc (G-CSF [3]; 10 ug): 1204.82 ng/mL
G-CSF Protein Expression, Conc (G-CSF [3]; 100 ug): 4722.20 ng/mL
